Assay results as given in the Immune Epitope Database (IEDB).

Legend:
HLA-B*83:01 = assay: IEDB peptide-MHC binding, purified MHC/competitive/fluorescence; filed as Kd, often an IC50 or EC50 that approximates it; ≥ and ≤ were set here for values at or beyond the usual limits of such assays
HLA-B*45:06 = assay: as above
HLA-B*15:42 = assay: as above
HLA-B*46:01 = assay: IEDB peptide-MHC binding, purified MHC/direct/fluorescence; filed as Kd, often an IC50 or EC50 that approximates it; ≥ and ≤ were set here for values at or beyond the usual limits of such assays; conditions: source organism: Yellow fever virus 17D
HLA-B*15:01 [1] = assay: as above; conditions: source organism: Yellow fever virus 17D
HLA-A*02:03 [2] = assay: IEDB peptide-MHC binding, purified MHC/competitive/radioactivity; filed as Kd, often an IC50 or EC50 that approximates it; ≥ and ≤ were set here for values at or beyond the usual limits of such assays
HLA-A*02:17 = assay: as above
HLA-A*02:01 [3] = assay: as above
HLA-A*03:01 [4] = assay: IEDB peptide-MHC binding, purified MHC/competitive/fluorescence; ≥ and ≤ were set here for values at or beyond the usual limits of such assays
HLA-A*11:01 [5] = assay: as above
HLA-B*39:01 = assay: IEDB peptide-MHC binding, purified MHC/competitive/fluorescence; filed as Kd, often an IC50 or EC50 that approximates it; ≥ and ≤ were set here for values at or beyond the usual limits of such assays
HLA-B*07:02 [6] = assay: as above
HLA-B*51:01 = assay: as above; conditions: source organism: Yersinia pestis Nepal516
HLA-B*35:01 = assay: as above
HLA-A*24:02 [7] = assay: IEDB peptide-MHC binding, purified MHC/competitive/fluorescence; ≥ and ≤ were set here for values at or beyond the usual limits of such assays; conditions: source organism: Zaire ebolavirus
HLA-A*02:01 [8] = assay: as above; conditions: source organism: Zaire ebolavirus
HLA-B*15:01 [9] = assay: as above; conditions: source organism: Zaire ebolavirus
HLA-A*24:02 [10] = assay: IEDB peptide-MHC binding, purified MHC/competitive/fluorescence; filed as Kd, often an IC50 or EC50 that approximates it; ≥ and ≤ were set here for values at or beyond the usual limits of such assays
HLA-A*31:01 [11] = assay: as above
HLA-A*03:01 [12] = assay: IEDB peptide-MHC binding, purified MHC/direct/fluorescence; filed as Kd, often an IC50 or EC50 that approximates it; ≥ and ≤ were set here for values at or beyond the usual limits of such assays
HLA-A*11:01 [13] = assay: as above
HLA-A*02:03 [14] = assay: IEDB peptide-MHC binding, purified MHC/competitive/fluorescence; filed as Kd, often an IC50 or EC50 that approximates it; ≥ and ≤ were set here for values at or beyond the usual limits of such assays; conditions: source organism: Giardia intestinalis
HLA-B*07:02 [15] = assay: IEDB peptide-MHC binding, purified MHC/direct/fluorescence; filed as Kd, often an IC50 or EC50 that approximates it; ≥ and ≤ were set here for values at or beyond the usual limits of such assays; conditions: source organism: Giardia intestinalis
HLA-A*69:01 = assay: as above; conditions: source organism: Giardia intestinalis
HLA-A*31:01 [16] = assay: as above; conditions: source organism: Giardia intestinalis
HLA-A*26:01 = assay: as above; conditions: source organism: Giardia lamblia ATCC 50803
HLA-A*01:01 = assay: as above; conditions: source organism: Giardia intestinalis
HLA-B*58:01 = assay: as above; conditions: source organism: Giardia intestinalis
HLA-B*27:05 = assay: as above; conditions: source organism: Giardia intestinalis
HLA-A*68:02 = assay: as above; conditions: source organism: Giardia intestinalis
HLA-B*18:01 = assay: as above; conditions: source organism: Giardia intestinalis
HLA-B*40:01 = assay: as above; conditions: source organism: Giardia intestinalis
HLA-A*02:01 [17] = assay: as above; conditions: source organism: Giardia intestinalis
HLA-B*57:01 = assay: as above; conditions: source organism: Giardia intestinalis
HLA-B*48:01 = assay: as above; conditions: source organism: Giardia intestinalis
HLA-A*32:01 = assay: IEDB peptide-MHC binding, purified MHC/competitive/radioactivity; filed as Kd, often an IC50 or EC50 that approximates it; ≥ and ≤ were set here for values at or beyond the usual limits of such assays; conditions: source organism: Vaccinia virus WR
HLA-A*30:01 = assay: as above; conditions: source organism: Vaccinia virus WR
HLA-B*08:01 = assay: as above; conditions: source organism: Vaccinia virus WR
HLA-B*15:03 = assay: as above; conditions: source organism: Vaccinia virus WR
HLA-B*15:01 [18] = assay: as above; conditions: source organism: Vaccinia virus WR
HLA-B*44:03 = assay: as above; conditions: source organism: Dengue virus 1 Brazil/97-11/1997
HLA-B*44:02 = assay: IEDB peptide-MHC binding, purified MHC/direct/fluorescence; filed as Kd, often an IC50 or EC50 that approximates it; ≥ and ≤ were set here for values at or beyond the usual limits of such assays; conditions: source organism: Dengue virus 1 Singapore/S275/1990
HLA-A*11:01 [19] = assay: IEDB peptide-MHC binding, purified MHC/competitive/fluorescence; filed as Kd, often an IC50 or EC50 that approximates it; ≥ and ≤ were set here for values at or beyond the usual limits of such assays; conditions: source organism: Homo sapiens
[20] = source organism: Yellow fever virus
[21] = source organism: Dengue virus 3 China/80-2/1980
[22] = source organism: Sudan ebolavirus
[23] = source organism: Zaire ebolavirus
[24] = source organism: Dengue virus 1 Singapore/S275/1990
[25] = source organism: Yersinia pestis Nepal516
[26] = source organism: Yersinia pestis Antiqua
[27] = source organism: Influenza A virus H3N2
[28] = source organism: Salmonella enterica subsp. enterica serovar Typhimurium str. LT2
[29] = source organism: Vaccinia virus
[30] = source organism: Bacillus thuringiensis str. Al Hakam
[31] = source organism: Bacillus anthracis
[32] = source organism: Mycobacterium tuberculosis C
[33] = source organism: dengue virus type 1
[34] = source organism: Salmonella enterica subsp. enterica serovar Typhi

Sequence AEMGANLCV has a Kd (HLA-B*83:01; [20]) of no less than 5000 nM, a Kd (HLA-B*45:06; [20]) of no less than 5000 nM and a Kd (HLA-B*15:42; [20]) of no less than 5000 nM. For the same sequence, the Kd (HLA-B*46:01) was no less than 20000 nM and the Kd (HLA-B*15:01 [1]) was no less than 20000 nM.

For ALFSGVSWI, the Kd (HLA-A*02:03 [2]; source organism: Dengue virus 3 Singapore/8120/1995) was 1.58 nM, the Kd (HLA-A*02:17; [21]) was 483 nM and the Kd (HLA-A*02:01 [3]; [21]) was 0.51 nM.

AQHSTTLFK was tested, and the IC50 (HLA-A*03:01 [4]; [22]) was 30000 nM and the IC50 (HLA-A*11:01 [5]; [22]) was 994 nM.

For ATTTSPQNH, the IC50 (HLA-A*03:01 [4]; [23]) was 37700 nM and the IC50 (HLA-A*11:01 [5]; [23]) was 1910 nM.

FLAHAIGTSI showed a Kd (HLA-A*02:03 [2]; source organism: Dengue virus 1 Brazil/97-11/1997) of 46.7 nM, a Kd (HLA-A*02:17; [24]) of 1.85 nM and a Kd (HLA-A*02:01 [3]; [24]) of 8.19 nM.

FPVAMLSCL gave a Kd (HLA-B*39:01; [25]) of 18.5 nM, a Kd (HLA-B*07:02 [6]; [25]) of 15.7 nM and a Kd (HLA-B*51:01) of 186 nM. For the same sequence, the Kd (HLA-B*35:01; [25]) was no more than 0.1 nM.

In the case of ILMNFHQKK, the IC50 (HLA-A*03:01 [4]; [23]) is reported as 808 nM, the IC50 (HLA-A*11:01 [5]; [23]) is reported as 163 nM and the IC50 (HLA-A*24:02 [7]) is reported as 9840 nM. The IC50 (HLA-A*02:01 [8]) was 2470 nM and the IC50 (HLA-B*15:01 [9]) was 69400 nM.

IYLNEVNTF showed a Kd (HLA-A*24:02 [10]; source organism: Vibrio splendidus 12B01) of no more than 0.1 nM.

KLLTKPWDV showed a Kd (HLA-A*02:17; source organism: Dengue virus 4 Philippines/H241/1956) of 379 nM.

KLSSTNQLR showed an IC50 (HLA-A*03:01 [4]; [23]) of 6870 nM, an IC50 (HLA-A*11:01 [5]; [23]) of 2460 nM and an IC50 (HLA-A*02:01 [8]) of no less than 196000 nM.

Sequence KVCRSPAQK has a Kd (HLA-A*31:01 [11]; [25]) of 1640 nM, a Kd (HLA-A*03:01 [12]; [26]) of 1810 nM and a Kd (HLA-A*11:01 [13]; [26]) of 114 nM.

In the case of LEKWNLGII, the Kd (HLA-A*02:03 [14]) is reported as 4370 nM, the Kd (HLA-B*07:02 [15]) is reported as no less than 20000 nM and the Kd (HLA-A*11:01 [13]; source organism: Giardia intestinalis) is reported as no less than 20000 nM. For the same sequence, the Kd (HLA-A*69:01) was no less than 20000 nM, the Kd (HLA-A*31:01 [16]) was no less than 20000 nM and the Kd (HLA-A*26:01) was no less than 20000 nM. For the same sequence, the Kd (HLA-A*01:01) was no less than 20000 nM, the Kd (HLA-B*58:01) was no less than 20000 nM and the Kd (HLA-B*27:05) was no less than 20000 nM. The Kd (HLA-A*68:02) was no less than 20000 nM, the Kd (HLA-B*18:01) was 1140 nM and the Kd (HLA-B*40:01) was 599 nM. It also gave a Kd (HLA-A*02:01 [17]) of no less than 20000 nM, a Kd (HLA-B*57:01) of no less than 20000 nM and a Kd (HLA-B*48:01) of no less than 20000 nM.

LYNKMEFEPF was tested, and the Kd (HLA-A*24:02 [10]; [27]) was 3.3 nM.

Work on MVGIVHFNK yielded a Kd (HLA-A*31:01 [11]; [28]) of 90 nM and a Kd (HLA-A*24:02 [10]; [28]) of 42.9 nM.

Sequence QLQQYAESR has an IC50 (HLA-A*03:01 [4]; [23]) of no less than 240000 nM and an IC50 (HLA-A*11:01 [5]; [23]) of 18700 nM.

Sequence RARIKTRLFTI has a Kd (HLA-B*07:02 [6]; source organism: Influenza A virus (A/X-31(H3N2))) of 733 nM.

RMKWMMAM was tested, and the Kd (HLA-B*07:02 [6]; [27]) was 3250 nM.

Work on RNKLSYRNK yielded a Kd (HLA-A*32:01) of no less than 44000 nM, a Kd (HLA-A*30:01) of 63.9 nM and a Kd (HLA-B*08:01) of no less than 61500 nM. It also gave a Kd (HLA-B*15:03) of 16400 nM, a Kd (HLA-B*15:01 [18]) of no less than 29500 nM and an IC50 (HLA-A*03:01 [4]; [29]) of 45100 nM. It also gave an IC50 (HLA-A*11:01 [5]; [29]) of no less than 90400 nM.

Work on RTHLGFIFQ yielded a Kd (HLA-A*31:01 [11]; [30]) of no less than 20000 nM, a Kd (HLA-A*03:01 [12]; [31]) of no less than 20000 nM and a Kd (HLA-A*11:01 [13]; [31]) of no less than 20000 nM.

With SARRRHLVF the Kd (HLA-B*83:01; [32]) was no less than 5000 nM, the Kd (HLA-B*45:06; [32]) was no less than 5000 nM and the Kd (HLA-B*15:42; [32]) was no less than 5000 nM.

SEMGANFRA was tested, and the Kd (HLA-B*44:03) was 48.9 nM, the Kd (HLA-B*83:01; [33]) was no less than 5000 nM and the Kd (HLA-B*45:06; [33]) was no less than 5000 nM. For the same sequence, the Kd (HLA-B*15:42; [33]) was no less than 5000 nM and the Kd (HLA-B*44:02) was no less than 37700 nM.

In the case of SFFYRYGF, the Kd (HLA-A*24:02 [10]; source organism: Influenza A virus (A/Fort Monmouth/1/1947-mouse adapted(H1N1))) is reported as 35.7 nM.

With SKSMRDQRK the IC50 (HLA-A*03:01 [4]; source organism: Variola virus) was no less than 246000 nM and the IC50 (HLA-A*11:01 [5]; source organism: Variola virus) was 21100 nM.

TLAVFLLLI showed a Kd (HLA-A*02:17; [24]) of 1840 nM and a Kd (HLA-A*02:01 [3]; [24]) of 2590 nM.

In the case of WPDVFSVSV, the Kd (HLA-B*39:01; [34]) is reported as 3.8 nM, the Kd (HLA-B*07:02 [6]; [34]) is reported as 65.7 nM and the Kd (HLA-B*35:01; [34]) is reported as 1.3 nM.

Work on YILWENNIKL yielded a Kd (HLA-A*02:17; [21]) of 10.1 nM and a Kd (HLA-A*02:01 [3]; [21]) of 5.85 nM.

With YLDDRNTFR the Kd (HLA-A*11:01 [19]) was no less than 20000 nM.

YYLLFYPTI gave a Kd (HLA-A*24:02 [10]; [30]) of no more than 0.1 nM.
